The text below walks through data of patent US20090317358A1.

The target in this test is human high affinity receptor for IL2 (IL2R) (human) (UniProt P01589). The test can be described thus: cell-based or functional assay.
Chain of UniProt P01589 (P01589 22-272, chain 1 of 3): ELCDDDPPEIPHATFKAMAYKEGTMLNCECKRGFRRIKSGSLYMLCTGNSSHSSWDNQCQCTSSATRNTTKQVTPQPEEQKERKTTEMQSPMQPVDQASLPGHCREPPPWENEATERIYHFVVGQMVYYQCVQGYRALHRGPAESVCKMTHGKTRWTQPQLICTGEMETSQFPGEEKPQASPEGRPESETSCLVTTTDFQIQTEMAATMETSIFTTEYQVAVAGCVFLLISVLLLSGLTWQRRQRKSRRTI
Chain of UniProt P01589 (P14784 27-551, chain 2 of 3, further chain): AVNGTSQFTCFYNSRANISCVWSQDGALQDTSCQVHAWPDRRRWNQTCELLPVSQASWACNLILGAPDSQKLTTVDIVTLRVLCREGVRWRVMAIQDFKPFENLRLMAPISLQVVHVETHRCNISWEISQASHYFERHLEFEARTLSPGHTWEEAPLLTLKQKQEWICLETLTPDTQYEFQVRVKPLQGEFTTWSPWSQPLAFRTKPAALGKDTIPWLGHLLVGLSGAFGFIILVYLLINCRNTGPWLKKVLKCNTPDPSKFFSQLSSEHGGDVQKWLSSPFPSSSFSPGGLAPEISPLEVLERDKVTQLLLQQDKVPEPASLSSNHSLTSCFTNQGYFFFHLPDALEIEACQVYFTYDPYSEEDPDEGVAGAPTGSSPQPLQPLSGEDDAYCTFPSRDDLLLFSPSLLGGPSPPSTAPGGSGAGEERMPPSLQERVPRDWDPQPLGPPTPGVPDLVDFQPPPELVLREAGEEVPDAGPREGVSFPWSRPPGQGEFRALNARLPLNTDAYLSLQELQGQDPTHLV
Chain of UniProt P01589 (P31785 23-369, chain 3 of 3, further chain): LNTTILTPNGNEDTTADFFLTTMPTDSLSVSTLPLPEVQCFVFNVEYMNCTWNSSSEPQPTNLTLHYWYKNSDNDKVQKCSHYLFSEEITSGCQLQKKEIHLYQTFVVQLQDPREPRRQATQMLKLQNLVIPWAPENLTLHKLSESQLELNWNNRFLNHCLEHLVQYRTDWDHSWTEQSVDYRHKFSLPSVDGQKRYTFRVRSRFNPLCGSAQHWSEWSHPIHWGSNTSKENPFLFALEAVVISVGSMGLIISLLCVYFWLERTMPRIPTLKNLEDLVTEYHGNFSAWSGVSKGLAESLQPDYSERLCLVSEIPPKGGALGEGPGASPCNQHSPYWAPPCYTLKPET

Take IL2-Bax chimeric protein: the M1, fresh lymphocytes analyzed by FACS, IL2-Bax 1 µg (Experiment No. 1) came to 17.5; the M1, fresh lymphocytes analyzed by FACS, IL2-Bax 5 µg (Experiment No. 1) is 24.3; the M1, fresh lymphocytes analyzed by FACS, IL2-Bax 10 µg (Experiment No. 1) stood at 42.1; the M1 - 2, fresh lymphocytes analyzed by FACS, IL2-Bax 1 µg (Experiment No. 1) was 13.5. This substance also gave an M1 - 2, fresh lymphocytes analyzed by FACS, IL2-Bax 5 µg (Experiment No. 1) of 20; an M1 - 2, fresh lymphocytes analyzed by FACS, IL2-Bax 10 µg (Experiment No. 1) of 35; an M2, fresh lymphocytes analyzed by FACS, IL2-Bax 1 µg (Experiment No. 1) of 4; an M2, fresh lymphocytes analyzed by FACS, IL2-Bax 5 µg (Experiment No. 1) of 4.3. Also, the M2, fresh lymphocytes analyzed by FACS, IL2-Bax 10 µg (Experiment No. 1) was 9.1; the UL + UR, fresh lymphocytes analyzed by FACS, IL2-Bax 1 µg (Experiment No. 2) came out at 10.5; the UL + UR, fresh lymphocytes analyzed by FACS, IL2-Bax 10 µg (Experiment No. 2) amounted to 31.6; the UL, fresh lymphocytes analyzed by FACS, IL2-Bax 1 µg (Experiment No. 2) turned out to be 4.98. For the same substance, the UL, fresh lymphocytes analyzed by FACS, IL2-Bax 10 µg (Experiment No. 2) was found to be 14.7; the UR, fresh lymphocytes analyzed by FACS, IL2-Bax 1 µg (Experiment No. 2) came to 5.56; the UR, fresh lymphocytes analyzed by FACS, IL2-Bax 10 µg (Experiment No. 2) was 16.8; the apoptotic cells in fresh human lymphocytes treated with IL2-Bax (FACS) lay in the range of 2 to 14%. Besides, the increase in the percentage of the apoptotic-cell population (sub-G1, FACS), HUT102 cells, highest concentration tested worked out at 3.6 fold.
